Data as given in patent US20240368301A1 (HANGZHOU JIUYUAN GENE ENGINEERING, published 2024).
Changes are numbered by the printed parent chain. In names and notes the source's numbering stands. Values belong to the binder of their own block, whether it stands above or below them.

What was measured:
[1] = biological target: T1, SIRPα-V2 on CHOZN-SIRPα-V2 cells (Homo sapiens (Human), UniProt P78324 31-504); experiment: competition FACS; CHOZN-SIRPα-V2 cells, FITC-labelled CD47 as competitor
Method: (§1) After washing, cells were analyzed by FlowJo V10 and GraphPad Prism6 software.

[2] = biological target: T2, SIRPα V1-his (ACRO, Cat #SIA-H5225) (human, UniProt P78324 31-370); experiment: SPR (Biacore), antibody captured by anti-Fc on CM5, 50 nM SIRPα V1-his injected, 1:1 model
T2 construct: not shown: His tag
Method: (§2) Using the Biacore analysis system, activators were prepared by mixing 400 mM EDC and 100 mM NHS and activated with a CM5 sensor chip at a flow rate of 10 μL/min for 420 s. Anti-Fc antibody at 30 μg/mL dissolved in 10 mM NaAc (pH 4.5) was injected into the channel at a flow rate of 10 μL/min and then closed with 1 M ethanolamine-HCl at a flow rate of 10 μL/min for 420 s. […] All experimental data were fitted using a 1:1 binding model.

[3] = biological target: T3, SIRPα-V1 on 293T-SIRPα-V1 cells (human, UniProt P78324 31-504); experiment: FACS titration on 293T-SIRPα-V1 cells, goat anti-hIgG-AF488 (panel SIRPα-V1)
T3 construct: Stably transfected cell line
Method: (§3) 2×10⁵ per well of stable transfer construct cell lines 293T-SIRPα-V1 (SEQ ID NO: 2), CHOZN-SIRPα-V2 (SEQ ID NO: 38), and CHOZN-SIRPα-V8 (SEQ ID NO: 39) in logarithmic phase were dispended in 96-well U-shaped culture plates, […] After washing, the cells were incubated with 0.2 μg of goat anti-hIgG-AF488 for 30 min at 4° C., then resuspended in 50 μL of DPBS/1% FBS and analyzed by flow cytometry with FlowJo V10 and GraphPad Prism6 software.

[4] = biological target: T3, SIRPα-V1 on 293T-SIRPα-V1 cells; experiment: FACS on cells carrying the target
Method: (§4) After washing, cells were stained with 0.2 μg goat anti-hIgG Fc-AF488 (Jackson ImmunoResearch, Cat #109-546-170) at 4° C. for 30 min. After washing again, cells were resuspended in 50 μL of DPBS/1% FBS and analyzed by FlowJo V10 and GraphPad Prism6 software.

[5] = biological target: T1, SIRPα-V2 on CHOZN-SIRPα-V2 cells; experiment: FACS on cells carrying the target
Method: as §4

[6] = biological target: T4, SIRPα-V8 on stably transfected cells (Homo sapiens (Human), UniProt P78324 31-504); experiment: FACS on cells carrying the target
T4 construct: also called CHOZN-SIRPα-V8; 293T-SIRPα-V8
Method: as §4

[7] = biological target: T3, SIRPα-V1 on 293T-SIRPα-V1 cells; experiment: competition FACS; 293T-SIRPα-V1 cells, FITC-labelled CD47 as competitor
Method: as §1

[8] = biological target: T2, SIRPα V1-his (ACRO, Cat #SIA-H5225); experiment: ELISA
[9] = biological target: T5, SIRPβ-his (Novoprotein, Cat #CS93) (UniProt O00241 30-371, limits assumed); experiment: ELISA
[10] = biological target: T1, SIRPα-V2 on CHOZN-SIRPα-V2 cells; experiment: FACS titration on CHOZN-SIRPα-V2 cells, goat anti-hIgG Fc-AF488 (panel SIRPα-V2)
Method: as §4

[11] = biological target: SIRPγ-his (Sino Biological, Cat #11828-H08H) (UniProt Q9P1W8 29-360); experiment: BLI (Octet RED 96), His-tagged antigen on Ni-NTA sensor, antibody in solution
Method: (§5) SIRPα V1-his (ACRO, Cat #SIA-H5225), SIRPα V2-his (made by transient transfection of HEK293F cells according to SEQ ID NO:38 sequence), SIRPβ-his (Novoprotein, Cat #CS93), SIRPγ-his (Sino Biological, Cat #11828-H08H) or cynomolgus macaques SIRPα-his (ACRO, Cat #SIA-C52H7) at 5 μg/mL was loaded to a Ni-NTA biosensor for 600 s. […] The data were fitted to calculate the affinity.

[12] = biological target: T2, SIRPα V1-his (ACRO, Cat #SIA-H5225); experiment: as above
Method: as §5

[13] = biological target: T5, SIRPβ-his (Novoprotein, Cat #CS93); experiment: as above
Method: as §5

[14] = biological target: T6, cynomolgus macaques SIRPα-his (ACRO, Cat #SIA-C52H7) (cynomolgus macaque, UniProt A0A2K5VYQ9 31-369); experiment: as above
T6 construct: also called Monkey SIRPα; cynomolgus macaque SIRPα
T6 sequence: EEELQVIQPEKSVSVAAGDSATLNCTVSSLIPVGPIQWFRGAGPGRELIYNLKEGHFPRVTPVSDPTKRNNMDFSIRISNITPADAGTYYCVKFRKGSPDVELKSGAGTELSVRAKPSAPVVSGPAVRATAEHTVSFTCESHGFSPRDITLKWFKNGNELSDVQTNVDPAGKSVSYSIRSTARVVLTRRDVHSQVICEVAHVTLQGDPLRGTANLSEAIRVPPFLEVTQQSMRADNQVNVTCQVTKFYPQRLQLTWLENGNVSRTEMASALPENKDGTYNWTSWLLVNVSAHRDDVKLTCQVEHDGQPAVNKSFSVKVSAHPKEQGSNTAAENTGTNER
Method: as §5

[15] = biological target: T4, SIRPα-V8 on stably transfected cells; experiment: FACS titration on CHOZN-SIRPα-V8 cells, goat anti-hIgG-AF488 (panel SIRPα-V8)
Method: as §3

[16] = biological target: T2, SIRPα V1-his (ACRO, Cat #SIA-H5225); experiment: competition ELISA; coated SIRPα-V1-his, biotin-CD47 as competitor
Method: 100 μL of 2.5 μg/mL of recombinant SIRPα-V1-his and SIRPα-V2-his were coated overnight at 4° C. in Maxisorp ELISA 96-well plates. […] […] VSWFSP (SEQ ID NO: 40)] and incubated in the microtiter plate for 1 h at 37° C. After washing, each well was added with Streptavdin-HRP (Thermo, Cat #434323), substrate TMB (Beyotime, Cat #P0209-100 mL), and read by an enzyme marker.

[17] = biological target: T2, SIRPα V1-his (ACRO, Cat #SIA-H5225); experiment: SPR (Biacore), antibody captured by anti-Fc on CM5, 50 nM SIRPα V1-his injected
Method: as §2

[18] = biological target: T2, SIRPα V1-his (ACRO, Cat #SIA-H5225); experiment: competition ELISA: coated SIRPα-V1-his, antibody titrated against biotin-CD47, streptavidin-HRP (panel SIRPα-V1-CD47)
[19] = biological target: T7, SIRPα V2-his (made by transient transfection of HEK293F cells according to SEQ ID NO:38) (Homo sapiens (Human), UniProt P78324 31-373); experiment: BLI (Octet RED 96), His-tagged antigen on Ni-NTA sensor, antibody in solution
T7 construct: it is the full-length precursor, starting with MEPAG... and including the transmembrane and cytoplasmic parts; not shown: His tag
Method: as §5

[20] = biological target: T7, SIRPα V2-his (made by transient …); experiment: competition ELISA: coated SIRPα-V2-his, antibody titrated against biotin-CD47, streptavidin-HRP (panel SIRPα-V2-CD47)

T2 sequence (P78324 31-370 limits assumed): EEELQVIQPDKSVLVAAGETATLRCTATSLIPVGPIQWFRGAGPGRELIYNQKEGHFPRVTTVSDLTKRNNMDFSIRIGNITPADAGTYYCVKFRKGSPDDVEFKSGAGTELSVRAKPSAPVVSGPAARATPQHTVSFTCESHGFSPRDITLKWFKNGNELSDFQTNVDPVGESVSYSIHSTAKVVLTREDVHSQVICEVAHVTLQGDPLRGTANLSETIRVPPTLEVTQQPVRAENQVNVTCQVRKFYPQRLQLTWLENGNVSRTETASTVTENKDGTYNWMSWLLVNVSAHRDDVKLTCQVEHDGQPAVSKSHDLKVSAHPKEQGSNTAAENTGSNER
Sequence of SIRPγ-his (Sino Biological, Cat #11828-H08H) (Q9P1W8 29-360 limits assumed): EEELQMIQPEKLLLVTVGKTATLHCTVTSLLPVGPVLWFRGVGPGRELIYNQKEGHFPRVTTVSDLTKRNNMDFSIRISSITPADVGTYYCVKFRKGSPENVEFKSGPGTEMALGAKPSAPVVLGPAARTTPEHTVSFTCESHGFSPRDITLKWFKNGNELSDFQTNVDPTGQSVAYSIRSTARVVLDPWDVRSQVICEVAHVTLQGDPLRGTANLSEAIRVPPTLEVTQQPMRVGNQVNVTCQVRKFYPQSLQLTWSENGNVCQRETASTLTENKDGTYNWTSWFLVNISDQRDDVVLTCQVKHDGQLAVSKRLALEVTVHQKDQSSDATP
T5 sequence (O00241 30-371 limits assumed): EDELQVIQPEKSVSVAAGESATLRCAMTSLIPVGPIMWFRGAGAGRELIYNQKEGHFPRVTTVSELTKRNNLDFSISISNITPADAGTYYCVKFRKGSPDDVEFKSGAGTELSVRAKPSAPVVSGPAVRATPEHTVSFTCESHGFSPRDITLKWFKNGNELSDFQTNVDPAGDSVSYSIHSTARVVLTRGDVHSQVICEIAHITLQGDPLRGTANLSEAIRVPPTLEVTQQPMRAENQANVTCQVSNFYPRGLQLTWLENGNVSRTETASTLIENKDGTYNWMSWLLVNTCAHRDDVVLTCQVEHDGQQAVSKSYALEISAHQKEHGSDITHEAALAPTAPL
T4 sequence (P78324 other isoform, or with tags, fused parts or gaps limits assumed): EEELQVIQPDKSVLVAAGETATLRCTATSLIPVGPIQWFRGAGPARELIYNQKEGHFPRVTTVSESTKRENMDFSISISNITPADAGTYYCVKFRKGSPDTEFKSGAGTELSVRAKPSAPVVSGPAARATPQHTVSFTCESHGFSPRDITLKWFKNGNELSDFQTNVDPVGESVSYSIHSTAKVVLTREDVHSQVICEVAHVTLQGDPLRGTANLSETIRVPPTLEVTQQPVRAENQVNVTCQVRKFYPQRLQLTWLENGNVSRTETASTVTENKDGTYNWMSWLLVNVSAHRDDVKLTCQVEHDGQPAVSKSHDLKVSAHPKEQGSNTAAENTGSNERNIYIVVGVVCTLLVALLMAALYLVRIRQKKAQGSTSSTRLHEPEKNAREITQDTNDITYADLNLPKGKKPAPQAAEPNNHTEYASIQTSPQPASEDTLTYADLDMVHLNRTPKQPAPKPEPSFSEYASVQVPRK
T3 sequence (P78324 31-504): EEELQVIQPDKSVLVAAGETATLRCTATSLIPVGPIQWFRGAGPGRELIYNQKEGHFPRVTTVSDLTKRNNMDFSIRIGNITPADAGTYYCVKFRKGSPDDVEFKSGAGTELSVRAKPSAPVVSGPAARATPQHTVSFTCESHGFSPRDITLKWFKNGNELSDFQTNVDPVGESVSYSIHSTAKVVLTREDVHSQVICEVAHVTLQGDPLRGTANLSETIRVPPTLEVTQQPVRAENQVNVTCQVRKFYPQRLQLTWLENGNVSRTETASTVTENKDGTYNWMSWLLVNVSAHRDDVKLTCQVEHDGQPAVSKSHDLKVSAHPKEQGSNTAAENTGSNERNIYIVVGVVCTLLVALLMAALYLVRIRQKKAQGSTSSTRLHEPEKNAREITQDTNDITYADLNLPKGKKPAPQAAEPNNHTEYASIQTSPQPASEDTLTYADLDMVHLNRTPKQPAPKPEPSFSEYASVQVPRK
T1 sequence (P78324 other isoform, or with tags, fused parts or gaps limits assumed): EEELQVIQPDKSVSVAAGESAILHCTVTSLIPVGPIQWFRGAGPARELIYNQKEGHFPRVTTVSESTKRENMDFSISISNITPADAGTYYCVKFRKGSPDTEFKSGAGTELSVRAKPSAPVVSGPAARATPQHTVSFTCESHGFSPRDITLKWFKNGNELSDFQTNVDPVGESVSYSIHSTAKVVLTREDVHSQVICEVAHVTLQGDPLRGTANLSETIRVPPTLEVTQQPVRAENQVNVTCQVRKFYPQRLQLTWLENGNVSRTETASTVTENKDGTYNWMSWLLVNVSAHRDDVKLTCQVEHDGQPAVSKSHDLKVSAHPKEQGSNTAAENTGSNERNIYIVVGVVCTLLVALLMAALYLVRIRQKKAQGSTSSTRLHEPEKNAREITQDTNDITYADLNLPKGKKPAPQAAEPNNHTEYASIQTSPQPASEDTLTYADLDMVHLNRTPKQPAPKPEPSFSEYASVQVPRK
T7 sequence (P78324 other isoform, or with tags, fused parts or gaps limits assumed): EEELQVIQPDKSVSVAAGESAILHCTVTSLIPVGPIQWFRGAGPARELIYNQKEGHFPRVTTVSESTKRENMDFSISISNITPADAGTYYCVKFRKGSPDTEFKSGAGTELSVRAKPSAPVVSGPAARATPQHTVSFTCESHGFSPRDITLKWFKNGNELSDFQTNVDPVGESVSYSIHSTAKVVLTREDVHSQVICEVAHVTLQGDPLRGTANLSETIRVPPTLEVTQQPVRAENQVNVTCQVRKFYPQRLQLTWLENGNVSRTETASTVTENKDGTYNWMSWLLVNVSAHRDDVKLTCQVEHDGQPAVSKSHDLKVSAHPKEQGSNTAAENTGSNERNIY

- IC50 [1]: 6.42 nM
- Kd [2]: 1.47 nM
- koff [2]: 0.00113 s⁻¹
- kon [2]: 770000 M⁻¹ s⁻¹
- EC50 (read off the curve) [3]: ~5 nM
- EC50 [4]: 0.615 nM
- EC50 [5]: 0.245 nM
- EC50 [6]: 0.407 nM
- IC50 [7]: 1.74 nM
- EC50 [8]: 0.0488 nM
- EC50 [9]: 0.271 nM
- EC50 (read off the curve) [10]: ~4 nM
- Kd [11]: 1.03 nM
- koff [11]: 0.000731 s⁻¹
- kon [11]: 709000 M⁻¹ s⁻¹
- Kd [12]: 0.0111 nM
- koff [12]: 1.16e-05 s⁻¹
- kon [12]: 1.05e+06 M⁻¹ s⁻¹
- Kd [13]: 0.0353 nM
- koff [13]: 3.21e-05 s⁻¹
- kon [13]: 909000 M⁻¹ s⁻¹
- Kd [14]: 0.43 nM
- koff [14]: 0.000498 s⁻¹
- kon [14]: 1.16e+06 M⁻¹ s⁻¹
- EC50 (read off the curve) [15]: ~2 nM
- IC50 [16]: 5.26 nM
B1: AD4-12 (antibody, V domains shown)
VH: EVQLEESGPGLVAPSQSLSITCTVSGFSLTGYGVNWVRQPPGKGLEWLGIIWGDGSTDYNSALKSRLSISKDNSKSQVFLKMNSLQSDDTARYYCARAGKMDYWGQGTSVTVSS
VL: DIVLTQSPASLAVSLGQGATISCRASESVDSYGNSFMHWYQQKPGQPPKPLIYLASNLESGVPARFSGSGSRTDFTLTIDPVEADDAATYYCQQNNEYPWTFGGGTKLEIK
notes: Mouse variable domains joined to human kappa and human IgG1 constant regions (wild type = AD4-12-G1, L234A/L235A = AD4-12-G1lala); also called AD4-12-G1; AD4-12-G1lala

- binding result [17]: binds
B2: Z2 (antibody, IgG1, V domains shown)
VH: QVQLQESGPGLVKPSQTLSLTCTVSGFSLTGYGVNWIRQPPGKGLEWIGIIWGDGSTDYNSALKSRVTISVDTSKNQVFLKLSSVTAADTAVYYCARAGKMDYWGQGTTVTVSS
VL: B1 VL with L15P, G18R, S22T, P50L, D80N, D85N, T89N, L108V
notes: also called humanized variant Z2

- IC50 (read off the curve) [18]: ~20 nM
- EC50 [4]: 1.08 nM
- EC50 [5]: 3.65 nM
- EC50 [6]: 8.76 nM
- EC50 [8]: 0.13 nM
- EC50 [9]: 0.196 nM
- Kd [19]: 1.07 nM
- koff [19]: 0.000601 s⁻¹
- kon [19]: 561000 M⁻¹ s⁻¹
- Kd [11]: 1.23 nM
- koff [11]: 0.000896 s⁻¹
- kon [11]: 728000 M⁻¹ s⁻¹
- Kd [12]: 0.115 nM
- koff [12]: 7.76e-05 s⁻¹
- kon [12]: 674000 M⁻¹ s⁻¹
- Kd [13]: 0.0137 nM
- koff [13]: 2.36e-05 s⁻¹
- kon [13]: 1.72e+06 M⁻¹ s⁻¹
- IC50 (read off the curve) [20]: ~30 nM
B3: 18D5 (antibody, V domains shown)
VH: QVQLQQPGAELVRPGSSVKLSCKASGYTFTSYWVHWVKQRPIQGLEWIGNIDPSDSDTHYNQKFKDKASLTVDKSSSTAYMQLSSLTFEDSAVYYCVRGGTGTMAWFAYWGQGTLVTVSA
VL: DVVMTQTPLSLPVSLGDQASISCRSSQSLVHSYGNTYLYWYLQKPGQSPKLLIYRVSNRFSGVPDRFSGSGSGTDFTLKISRVEAEDLGVYFCFQGTHVPYTFGSGTKLEIK
